Laboratory results reported in publication PMC4840375.

Legend:
[1] = biological target: TraH expressed in E. faecalis JH2-2 (pEU327-RBS-traH) (Enterococcus faecalis (plasmid pIP501)); assay: cross-linking; in vivo, E. faecalis JH2-2 (pEU327-RBS-traH) cells in early log phase, formaldehyde 0.5–2% in PBS for 10 minutes; SDS-PAGE and western blot
[2] = biological target: TraH, full length, purified and reconstituted in DDM micelles (Enterococcus faecalis (plasmid pIP501)); assay: cross-linking; in vitro, 8 μg purified protein, 300 mM NaCl, 100 mM bicine, 1 mM DTT, glutaraldehyde 0–1% (v/v), 15 min at RT; full-length TraH kept in DDM micelles; SDS-PAGE and western blot
[3] = biological target: TraH, full length, purified and reconstituted in DDM micelles (Enterococcus faecalis (plasmid pIP501)); assay: native gel or EMSA; semi-native PAGE: sample buffer without SDS and reducing agent, 4 °C, 12.5% native gels, running buffer with 0.1% SDS; full-length TraH in DDM micelles; western blot
[4] = biological target: TraH, full length, purified and reconstituted in DDM micelles (Enterococcus faecalis (plasmid pIP501)); assay: SEC; analytical SEC of full length TraH reconstituted in DDM micelles; 70 kDa taken for the micelle; apparent molecular weight

“TraH expressed in E. faecalis JH2-2 (pEU327-RBS-traH) (natural protein)” gave a stoichiometry N [1] of 2.
Work on “TraH, full length, purified and reconstituted in DDM micelles (natural protein)” yielded a stoichiometry N [2] of 2, a stoichiometry N [3] of 2 and a stoichiometry N [4] of 4.
